From patent US20170327598A1 (published 2017)

Legend:
[1] = target: STAT 2 protein (UniProt P52630 1-851, limits assumed); assay: sandwich ELISA, STAT protein coated at 0.5 µg/mL
[2] = target: T1, STAT 4 protein (UniProt Q14765 1-748, limits assumed); assay: sandwich ELISA, STAT protein coated at 0.5 µg/mL
T1 sequence (looked up): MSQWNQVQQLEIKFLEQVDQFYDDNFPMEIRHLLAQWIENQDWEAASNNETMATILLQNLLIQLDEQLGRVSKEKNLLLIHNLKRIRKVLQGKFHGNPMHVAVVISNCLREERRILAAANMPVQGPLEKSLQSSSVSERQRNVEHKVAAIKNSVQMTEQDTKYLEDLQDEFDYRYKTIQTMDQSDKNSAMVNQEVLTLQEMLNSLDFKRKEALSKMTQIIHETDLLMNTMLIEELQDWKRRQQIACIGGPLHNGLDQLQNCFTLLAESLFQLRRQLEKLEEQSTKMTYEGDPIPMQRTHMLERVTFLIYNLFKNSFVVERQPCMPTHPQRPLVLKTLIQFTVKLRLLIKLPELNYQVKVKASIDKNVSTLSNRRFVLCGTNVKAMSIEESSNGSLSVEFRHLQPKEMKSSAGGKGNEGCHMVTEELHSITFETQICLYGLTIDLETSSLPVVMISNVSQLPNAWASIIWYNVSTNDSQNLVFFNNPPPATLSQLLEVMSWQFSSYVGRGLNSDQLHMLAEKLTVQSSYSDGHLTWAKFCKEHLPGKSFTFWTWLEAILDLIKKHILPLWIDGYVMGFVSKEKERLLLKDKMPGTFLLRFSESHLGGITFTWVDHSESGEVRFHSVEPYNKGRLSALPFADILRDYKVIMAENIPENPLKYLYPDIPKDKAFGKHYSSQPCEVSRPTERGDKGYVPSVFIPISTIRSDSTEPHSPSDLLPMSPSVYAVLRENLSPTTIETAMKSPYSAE

Chain of STAT 2 protein (P52630 whole entry): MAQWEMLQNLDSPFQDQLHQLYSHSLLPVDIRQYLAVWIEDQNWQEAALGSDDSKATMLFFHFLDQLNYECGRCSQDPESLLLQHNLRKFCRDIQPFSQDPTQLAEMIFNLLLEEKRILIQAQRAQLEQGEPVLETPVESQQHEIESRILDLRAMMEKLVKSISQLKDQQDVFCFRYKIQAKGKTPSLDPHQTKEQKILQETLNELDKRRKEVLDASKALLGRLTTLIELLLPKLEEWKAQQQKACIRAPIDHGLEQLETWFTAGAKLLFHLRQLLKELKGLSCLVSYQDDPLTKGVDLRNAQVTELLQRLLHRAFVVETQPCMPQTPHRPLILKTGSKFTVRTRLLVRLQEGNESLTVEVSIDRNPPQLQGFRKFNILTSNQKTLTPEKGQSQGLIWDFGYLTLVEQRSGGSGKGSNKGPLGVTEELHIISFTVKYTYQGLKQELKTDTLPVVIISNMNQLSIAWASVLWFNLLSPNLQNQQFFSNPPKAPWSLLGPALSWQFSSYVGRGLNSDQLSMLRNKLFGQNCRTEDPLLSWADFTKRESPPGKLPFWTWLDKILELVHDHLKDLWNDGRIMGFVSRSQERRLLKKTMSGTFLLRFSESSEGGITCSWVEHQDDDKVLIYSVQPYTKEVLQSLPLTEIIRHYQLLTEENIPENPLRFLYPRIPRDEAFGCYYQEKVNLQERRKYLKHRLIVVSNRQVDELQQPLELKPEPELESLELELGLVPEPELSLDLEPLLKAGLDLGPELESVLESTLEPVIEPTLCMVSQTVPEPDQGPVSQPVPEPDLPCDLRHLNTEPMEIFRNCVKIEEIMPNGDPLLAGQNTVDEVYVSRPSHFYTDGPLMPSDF

Mean OD450 [1]: 3.34 OD450
Mean OD450 [2]: 3.67 OD450
B1: anti-STAT3 VHH13 (SEQ ID NO:3) sdAb (VHH)
VHH: HVQLVESGGGSVQAGGSLRLSCAASGANGGRSCMGWFRQVPGKEREGVSGISTGGLITYYADSVKGRFTISQDNTKNTLYLQMNSLKPEDTAMYYCATSRFDCYRGSWFNRYMYNSWGQGTQVTVSS
